In the nanobody polyreactivity screen of Harvey et al. (2022):

Assay: yeast display, Sf9 membrane polyspecificity reagent, FACS + sequencing; frameworks hold sequencing errors
Procedure, shortened: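 Galactose induction of a Saccharomyces cerevisiae BJ5465 synthetic nanobody display library ran 36–48 hours. The cells were then stained for 1 hour at 4 °C with 10% biotinylated, detergent-solubilized Sf9 membrane reagent, pulled down on streptavidin microbeads and FACS-sorted into low and high (top ~1%) gates on expression and reagent-binding fluorescence. Labels for polyreactivity follow the gate of origin.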
With “QVQLVESGGGLVQAGGSLRLSCAASGRIFVQYAMGWNRQAPGKERELVAAISGSGGRTYYADSVKWRFTISRDNAKNTVYLQMNSLKTEDTAVFYCAARSSTGVSFWKPYYYWGQGTQVTLSS” the “polyreactivity (PSR sort gate)” value was “high polyreactivity”. With “QVQLVESGGGLVQAGGSLRLSCAASGSTFFGYAMGWYRQAPGKERELVATISSGDSTNYADSVKGRFTISRDNAKNTVYLQMNSLKPEDTAVYYCAAQGGDGVLALYYYWGQGTQVTVSS” the “polyreactivity (PSR sort gate)” value was “low polyreactivity”. In the case of “QVQLVESGGGLVQAGGSLRLSCAASGRTFYYNAMGWYRQAPGKERELVAAISYRGGSTYYADSVKGRFTISRDNAKNTVYLQMNSLKPEDTAVYYCAKYPHPLKYPGYPSEFDYWGQGTQVTVSS”, the “polyreactivity (PSR sort gate)” value is reported as “low polyreactivity”. For “QVQLVESGGGIVQAGGSLRLSCAASGFTFGSNAMGWYRQAPGKERELVAAISRSSGRTYYADSVKGRFTISRDNAKNNVYLHMNSLKQEDTAVYYCDAQTPYRISLQYYYWGQGTQVTVSS”, the “polyreactivity (PSR sort gate)” value was “high polyreactivity”. With “QVQLVESGGGLDQAGGSHRLSCAASGRTFPGNAMGWYRQAPGKERELVAAISWSGSRTYYADSLKGRFTISRDNAKNTVYLHMTRMKPEDTAVYYCNVVVKGAWEYYPYDYWGQGTEVTVSS” the “polyreactivity (PSR sort gate)” value was “high polyreactivity”. With “QVQLVESGGGLVQAGGSLRLSCAASGSTSTGNAMGWYRKAPGKERELVAAITSGGNTYYADSVKGRFTISRDNAKNTVYLQMNSLKPEDTAVYYCAAASPGPWRYDYWGQGTQVTVSS” the “polyreactivity (PSR sort gate)” value was “high polyreactivity”. In the case of “QVQLVESGGGLVQAGGSLRLSCAASGSIFRSYAMGWYRPAPGKERELVASITWRGGRTYYADSVKGRFTISRDNAKNTVYLQMNSLKPEDTAVYYCAVLWTPAGGYYFRYDYWGQGTQVTVSS”, the “polyreactivity (PSR sort gate)” value is reported as “low polyreactivity”. In the case of “QVQLVDSGGGLVQAGGSLRLSCAASGFTFVYYVMGWYRQAPGKERQLVAAINAGGGSTYYADSVKGRFTISRDIAKYTVYLQMNSLKPEDTAVYYCNARVRVRLGRNWSSYYYWGQGTQVTVSS”, the “polyreactivity (PSR sort gate)” value is reported as “high polyreactivity”. For “QVQLVESGGGLVQAGGSLRLSCAASGLTFYFNAMVWYRQAPVKERQLVAAIDWGGGSTYYADSVKGRFTISRDNAKNTVYLQMNSLNPEDTAVYYCGARGYYYNYDVNYWVQGTQVTVSS”, the “polyreactivity (PSR sort gate)” value was “low polyreactivity”. For “QVQLVESGGGLVQAGGSLRLSCAASGITFVFNAMGWYRQAPGKERELVASITIGGNTYYADSVKGRFTISRDNAKNTVYLQMNSLKPEDSAVYYCAADIARSVRFYYWGQGTQVTVSS”, the “polyreactivity (PSR sort gate)” value was “low polyreactivity”. For “QVQLVESGGGLVQAGGSLRLSCAASGRTFRYYTMGWYRQAPGKERELVASISWSGGSTYYADSVKGRFTISRDNAKNTVYLQMNSLKPEDTAVYYCNAVYGYRGVTNMDYWGQGTQVTVSS”, the “polyreactivity (PSR sort gate)” value was “high polyreactivity”. For “QVQLVESGGGIVQAGGSLRLSCAASGRTSVINAMGWYRQAPGKERELVASISRGGSTNYADSVKGRFTISRDNAKNTVYLQMNSLKPEDTAVYYCNADEQNDSFIWSYTIIYDYWGQGTQVTVSS”, the “polyreactivity (PSR sort gate)” value was “low polyreactivity”. In the case of “QVQLVESGGGLVQAGRSLRLSCAASGFIFRRYAMGWYRQAPGKEREFVAAISSGDDTDYADSVKGRFTISRDNAKNTVYLQMNSLKPEDTAVYYCAADHRYSVKYYYWGQGTQVTVSS”, the “polyreactivity (PSR sort gate)” value is reported as “low polyreactivity”. With “QVQLVESGGGLVQAGGSLRLSCAASGFTFVYYAMGWYRQAPGKERELVAAIRSGGSTNYADSVKGRFTISRDNAKNTVYLQMNSLKPEDTAVYYCAAAYWKGRLVRYYYWGQGTQVTVSS” the “polyreactivity (PSR sort gate)” value was “high polyreactivity”. For “QVHLVESGGGLVQAGGSLRLSCAASGRIFGRYAMGWYRQAPGKERELVARITTSGGSTSYADSVKGRFTISRDNAKNTVYLQMNSLKPEDTAVYYCAADRARYYSEYDYWGQGTQVTVSS”, the “polyreactivity (PSR sort gate)” value was “low polyreactivity”. With “QVQLVESGGGLVQAGGSLRLSCAASGFTFRVYAMGWYRQAPGKERELVAAITKRGGSTYYADSVRGRFTISRDNAKNTVYLQMNSLKPEDTAVYYCATENTPHYASHGYWGQGTQVTVSS” the “polyreactivity (PSR sort gate)” value was “high polyreactivity”. With “QVQLVESGGGLVQAGGSLRLICAASGRTFVANTMGWYRQAPGKERELVATITWNGGSTYYADSVKGRFTISRDNAKNTVYLQMNSLKPEDTAVYYCAKEAYFRRYYVYRYGYWGQGTQVTVSS” the “polyreactivity (PSR sort gate)” value was “high polyreactivity”. With “QVQLVESGGGLVQAGGSLRLSCAASGSTFVPNAMGWYRQAPGKEREFVAAIRVSGDNTYYADSVKGRFTISRDNAKNTVYLQMNSLKPEDTGVYYCAATGTVLGSVDYWGQGTQVTVSS” the “polyreactivity (PSR sort gate)” value was “low polyreactivity”. With “QVQLVESGGGLVQAGGSLRLSCAASGSIFPRDAMGRYRQAPGKERELVAAITGSGSSTYYADSVKGRFTISRDNAKNTVYLQMNSLKPEDTAVYYCNTARPTAAYDYWGQGTKVTVSS” the “polyreactivity (PSR sort gate)” value was “low polyreactivity”. In the case of “QVQLVESGGGLVQAGGSLRISCAASGSTSSRNAMGWYRQAPGKERELVAAITSGTRTYYADSVKGRFTISRDNAKNSVYLQRNSLKPEDTAVYYCARGRVSRYTKTDYDYWGQGSQVTVSS”, the “polyreactivity (PSR sort gate)” value is reported as “high polyreactivity”. For “QVQLVESGVGLVQAGGSLRLSCAASGIIFYDNALGWYRQAPGKERELVAAITDSGGTTYYADSVKGRFTISRDNAKNTVYLEMNSLKPEDNAVYYCAAETTATHGFAYDYWGQGTQVTVSS”, the “polyreactivity (PSR sort gate)” value was “low polyreactivity”. With “QVQLVESGGGLVQAGGSLRLSCAASGSIFQYNTMGWYRQAPGKERELVAAINWSGVSTYYADSVKGRFTISRDNAKNTVYLQMNSLKPEDTAVYYCNARRYVAGSYIYERGYWGQGTQVTVSS” the “polyreactivity (PSR sort gate)” value was “high polyreactivity”. In the case of “QVQLVESGGGLVQAGGSLRLSCAASGSTFGVYAMGWYRQAPGKERELVAAISGSGAGTYYADSVKGRFTISRDNAKNTVYLQMNSLKPEDTAVYYFNKVSVRGQRYGYWGQGTQVTVSS”, the “polyreactivity (PSR sort gate)” value is reported as “high polyreactivity”. With “QVQLVESGGGLVQAGGSLRLSCAASGSTFDGNAKGWYRQAPGKERELVATINSGSSTNYADSVKGRFTISRDNAKNTVYLQMISLKPEDTAVFYCNVDSGSDSLVYSVRYNYWGQGTQVTVSS” the “polyreactivity (PSR sort gate)” value was “low polyreactivity”. In the case of “QVQHVESGGGLVQAGGSLRLSCAASGFTFYGNALGWYRQAPGKERELVAAITSGGSTYYADSVKGRFTISRDNAKNTVYLQMNSLKPDDTAVYYCAADEVLYGYEYWGQGTQVTVSS”, the “polyreactivity (PSR sort gate)” value is reported as “low polyreactivity”. With “QVQLVESGGGLVQAGGSLRLSCAASGLTFVYYAMGWYRQAPGKERELVAVISSSGGSTYYADSVKGRFTISRDNAKNTVYLQMNSLKPEDTAVYYCAAPRQVYYQTDNDYWGQGTQVTVSS” the “polyreactivity (PSR sort gate)” value was “high polyreactivity”. With “QVQLVESGGVLVQAGGSLRLSCAASGIIFRSNVMGWYRQAPGKERELVAAISTGGGRTYYADSVKGRFTISRDNAKNTVYLQMNILKPEDTAVYYCAAETTPYQPDGFDEYYYWGQGTQVTVSS” the “polyreactivity (PSR sort gate)” value was “high polyreactivity”. For “QVQLVESGGGLVQAGGSLRLSCAASGFTFYGYVMGWYRQAPGKERELVASIRSRGSRTSYADSVKGRFTISRDNAKNTVYLQMNSLKPEDTAVYYCAASRGRLPYSSTSNGDYDYWGQGTQVTVSS”, the “polyreactivity (PSR sort gate)” value was “high polyreactivity”. In the case of “QVQLVESGGGLVQAGGSLRLSCAASGRTFAYNTMGWYRQAPGKERELVARINSGTSTYYADSVKGRFTISRDNAKNTVYLEMNSLKPEDTAVYYCAARGSDYIRWYVGGRYGYWGQGSQVTVSS”, the “polyreactivity (PSR sort gate)” value is reported as “low polyreactivity”. For “QVQLVESGGGLVQAGGSLRLSCAASGITFGGYAMGWYRKARGKERELVAAISWRGGRTYYADSVKGRFTISRDNAKNTVYIQMNSLKPDDTAVYYCAVGGTVYSTESDYWGQGTQVTVSS”, the “polyreactivity (PSR sort gate)” value was “high polyreactivity”. For “QVQLVESGGGLVQAGGSLRLSCAASGFIFVYNAMGWYRPAPGKERELVAAIDYGGGSTTYADSVKGRFTISRDNAKNTVYLQMNSLKPEDTAVYYCAAYYRYLDDIYEYEYWGQGTQVTVSS”, the “polyreactivity (PSR sort gate)” value was “low polyreactivity”. For “QVQLVESRGGLVQAGGSLRLSCAASGFIFWYYAMGWYRQAPGKERALVAAINWSGTSTNYADSVKGRFTISRDNAKNTVYLQMNSLIPEDTAVYYCNTRIWSSSYDVTYDYWGQGTQVTVSS”, the “polyreactivity (PSR sort gate)” value was “low polyreactivity”. In the case of “QDQLVESGGGLVQAGGSLRLSCAASGSIFADYVMGWYRQAPGKERELVAAITRRGRTYYADSVKGRFTISRDNAKNNVYLQMNSLKPEDTAVYYCAKVAYGKIDSWGQGTQVTVSS”, the “polyreactivity (PSR sort gate)” value is reported as “low polyreactivity”. In the case of “QVQLVESGGGLVQAGGSLRLSCAASGRTFYSYARGWYRQAPGKEREFFAAISRSGGSTYYADSVKGRFTISRDYAKNTVYLQMNSLKPEDTAVYYCAARYRRDDYDYWGQGTQVTVSS”, the “polyreactivity (PSR sort gate)” value is reported as “high polyreactivity”. In the case of “QVQLVESGGGLDQAGGSLRLTCAASGSTFYLYDMGWYRQAPGKERELVAVISWSGGSTSYADSVKGRFTISSDNAKNTVYLHMNSLTPEDTAVYYCAAAIGVYYIDYRYLGTVEYWGQGTQVTVSS”, the “polyreactivity (PSR sort gate)” value is reported as “low polyreactivity”. With “QVQLVESGGGLVQAGGSLRLSCAASGRIIYRYAMGWYRQAPGKERELVAAIRYSGGRTYYADSVKGRFTISRDNAKNTVYLQMNSLKPEDTAVYYCAADGQWYYARFRGGDYENDYWGQGTQVTVSS” the “polyreactivity (PSR sort gate)” value was “low polyreactivity”. With “QVQLVESGGGLVQAGGSLRLSCAASGFTFSSYAMGWSRQAPGKERELVAAITISGGRTYYADSVKGRFTISRDNAKNTVYLQMNSLIPEDTAVYYCAAVGRLARRDYWGQGTQVTVSS” the “polyreactivity (PSR sort gate)” value was “high polyreactivity”. In the case of “QVQLVESGVGLVQAVGSLRLSCAASGIILHYYAMGWYRQAPGKERELVAAISARGGRTYYADSVKGRFTISRDNAKNTVYLQMNSLKPEDTAVYYCAKDTRRSGVSTYTGNMDYWGHGTQVTVSS”, the “polyreactivity (PSR sort gate)” value is reported as “high polyreactivity”. For “QVQLVESGGGEVQAGGSLRLICAASGRTFQLNAMGWYRQAPGKERELVAAISTRGGSTYYADSVKGRFTISRDNAKNTVYLQMISLKPEDTAVYYCAARVWTANYEMDLWGQGTQVTVSS”, the “polyreactivity (PSR sort gate)” value was “high polyreactivity”. In the case of “QVQLVESGGGLVQAGGSLRLSCAASGRSFTGYAMGWYRQATGKERELVASISDSGASTYYADSVKGRFTISRDNAKNTVYLLMNSLKPEDTAVFYCAASYPSYNWSVGDDDYWGQGTQVTVSS”, the “polyreactivity (PSR sort gate)” value is reported as “low polyreactivity”.
